The target in this series is T1, ScPif1 (Saccharomyces cerevisiae, UniProt P07271 40-859).
T1 sequence: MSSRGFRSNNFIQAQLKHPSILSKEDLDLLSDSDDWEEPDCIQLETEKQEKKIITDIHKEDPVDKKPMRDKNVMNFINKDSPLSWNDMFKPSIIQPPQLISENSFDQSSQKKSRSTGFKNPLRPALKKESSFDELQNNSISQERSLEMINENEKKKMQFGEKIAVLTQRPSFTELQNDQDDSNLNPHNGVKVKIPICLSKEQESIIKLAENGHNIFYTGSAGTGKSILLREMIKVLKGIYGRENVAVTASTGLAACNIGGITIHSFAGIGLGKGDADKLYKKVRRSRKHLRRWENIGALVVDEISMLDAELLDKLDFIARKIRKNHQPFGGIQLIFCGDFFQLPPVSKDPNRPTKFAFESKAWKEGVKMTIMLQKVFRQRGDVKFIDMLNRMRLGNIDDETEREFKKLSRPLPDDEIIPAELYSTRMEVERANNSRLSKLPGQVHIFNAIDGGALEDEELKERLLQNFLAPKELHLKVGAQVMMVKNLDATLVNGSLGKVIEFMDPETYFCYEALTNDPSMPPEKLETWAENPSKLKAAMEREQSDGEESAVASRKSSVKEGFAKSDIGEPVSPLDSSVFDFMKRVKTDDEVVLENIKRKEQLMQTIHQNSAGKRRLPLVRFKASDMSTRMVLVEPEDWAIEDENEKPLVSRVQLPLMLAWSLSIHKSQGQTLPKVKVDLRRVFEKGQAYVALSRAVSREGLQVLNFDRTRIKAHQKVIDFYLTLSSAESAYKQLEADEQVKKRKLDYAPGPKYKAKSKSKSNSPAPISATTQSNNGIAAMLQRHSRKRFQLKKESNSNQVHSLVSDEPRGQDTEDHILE
Nature of the series: filter binding.

B1: G-rich 20-mer (GR) (ssDNA)
DNA: CGGCCCGGCGGTCCGCGGTC
The term Kd denotes the constant that tells how readily two partners part at equilibrium. The low end stands for higher affinity, the high end for lower affinity. B1 showed a Kd of 0.04 nM.

B2: non-G-rich 20-mer (NG) (ssDNA)
DNA: CAAAGGACCCTTTGTGGATC
Take B2: binding was put at a Kd of 0.2 nM.

(Values after publication PMC3680789.)
